Data reported in the RNAGym collection of RNA variant scans (doi:10.1101/gr.219683.116).

B1: mRNA-splicing (parent)
chain: AGUUGCUGCUGGGAGCUCCAGCACAGUGAAAUGGACAGAAGGGCAGAGCAA

Variants of: B1
Test: exon inclusion enrichment index; higher = more inclusion; WT1 exon 5 minigene, HEK293

Row | Variant | exon inclusion enrichment index
1 | U4C C6G U7C U10C | 3.95
2 | U3A U4C C6A U7C C9A U10C | 4.11
3 | G2U U3C G5C C6G U7C U10C | 5.85
4 | U3C U4A C6A U7C C9A U10C | 2.21
5 | U3A U4G G5A U7C G8A U10C | 3.06
6 | U4G C6U U7A G8U C9A | 0.0761
7 | G2A U3A C6A U7A C9A U10A | 0.777
8 | U3G U4C G5C C6A U7C G8A U10A | 0.139
9 | U3A U4G G5A C6U U7A G8U C9A | 0.0692
10 | U4C C6A U7C C9A U10C | 4.65
11 | U3C G5U G8U C9U | 0.0225
12 | G2U U3C G5U G8U C9U | 0.965
13 | U3A U4A G5A C6U U7A G8U C9A | 0.0823
14 | G2C U3C G5C C6U G8C C9U U10C | 1.91
15 | U3G U4G C6A U7A C9A U10A | 0.0489
16 | U3G U4G G5A C6U U7A G8U C9A | 0.0433
17 | U4A G5A C6A U7C C9A U10C | 2.23
18 | U4A G5C G8U C9U | 0.718
19 | U4G C6G U7C U10C | 0.838
20 | G2U U3A C6A U7C C9A U10C | 4.33
21 | G2C U3C G5A U7C G8A U10C | 2.27

Row | Variant | exon inclusion enrichment index
22 | U4C G5U C6A U7A C9A U10A | 0.296
23 | U4G C6G U7G C9A | 0.0187
24 | U3A U4C G5A C6G U7G C9A | 0.0761
25 | U3C U4A G5C C6U G8C C9U U10C | 1.61
26 | U4C G5A C6G U7C U10C | 3.53
27 | U4C G5C U7C G8A U10C | 1.51
28 | U3C U4C G5U G8U C9U | 0.335
29 | U3G C6A U7A C9A U10A | 0.238
30 | G2U U3G G5A C6G U7G C9A | 0.0222
31 | U3C U4C G5A C6G U7G C9A | 0.127
32 | U3C U4G G5A C6U U7A G8U C9A | 0.312
33 | U3A U4A C6A U7C C9A U10C | 1.08
34 | U4A C6A U7C C9A U10C | 1.35
35 | U3A U4C G5A U7C G8A U10C | 2.99
36 | G2A U3C G5C C6A U7C G8A U10A | 0.124
37 | U4A U7C G8A U10C | 0.474
38 | G2C U3A G5C C6A U7C G8A U10A | 0.0802
39 | U3A U4G G5U G8U C9U | 0.143
40 | U3G U4C C6A U7C C9A U10C | 3.64
41 | U3G U4A G5U G8U C9U | 0.0683
42 | G2A U3C G5A C6U U7A G8U C9A | 0.0801

Row | Variant | exon inclusion enrichment index
43 | G2A U3G C6A U7C C9A U10C | 2.22
44 | G2A U3A G5A C6G U7G C9A | 0.00701
45 | G2C | 0.141
46 | G2U | 0.476
47 | G2A | 0.419
48 | G2C U3C G5C C6A U7C G8A U10A | 0.119
49 | U4A G5C U7C G8A U10C | 2.34
50 | U3G G5C C6U G8C C9U U10C | 0.696
51 | U4A G5A C6G U7C U10C | 1.18
52 | U3C U4G G5A U7C G8A U10C | 2.97
53 | U3C U4G G5U G8U C9U | 0.61
54 | U4C G5A C6U U7A G8U C9A | 0.47
55 | U3C U4G | 0.0956
56 | U3C U4A | 0.0261
57 | U3C U4C | 0.208
58 | G2C U3G C6A U7C C9A U10C | 3.19
59 | G2U G5A U7C G8A U10C | 3.56
60 | U3A G5A U7C G8A U10C | 3.2
61 | U3A U4C G5A C6U U7A G8U C9A | 0.3
62 | G2U U3A G5A U7C G8A U10C | 3.36
63 | G2A G5U G8U C9U | 0.53

Row | Variant | exon inclusion enrichment index
64 | G2C U3C G5A C6G U7G C9A | 0.0355
65 | G2C G5U G8U C9U | 0.122
66 | U4C C6U U7A G8U C9A | 1.12
67 | U4A G5U C6U U7A G8U C9A | 0.0503
68 | U4C G5U C6U U7A G8U C9A | 0.269
69 | U4C G5A C6A U7A C9A U10A | 0.662
70 | U4C G5C C6A U7C G8A U10A | 0.286
71 | U4A C6G U7C U10C | 0.262
72 | U3C U4C G5C C6U G8C C9U U10C | 0.521
73 | U3G U4C G5U G8U C9U | 0.0275
74 | U4C G8U C9U | 2.06
75 | G2C C6A U7A C9A U10A | 0.788
76 | U3A U4A G5U G8U C9U | 0.296
77 | G2U G5U G8U C9U | 0.329
78 | G2A U3G G5C C6U G8C C9U U10C | 1.42
79 | G2U G5A C6G U7G C9A | 0.0266
80 | U3G U4C G5A C6U U7A G8U C9A | 0.122
81 | U3A U4G G5C C6G U7C U10C | 1.31
82 | U4C G5A C6A U7C C9A U10C | 4.23
83 | U3C U4G C6A U7C C9A U10C | 2.89
84 | U3G G5A U7C G8A U10C | 0.68
